In publication PMC10630886, “Downregulation of stromal syntenin sustains AML development” (EMBO Molecular Medicine, 2023):
No end group written: not given here.

T1: 6xHis-tagged GIPC1 construct (UniProt O14908 1-333)
T1 construct: also called recombinant GIPC1; source: recombinant; prepared as described previously (PMID: 27386966)
T1 sequence (looked up): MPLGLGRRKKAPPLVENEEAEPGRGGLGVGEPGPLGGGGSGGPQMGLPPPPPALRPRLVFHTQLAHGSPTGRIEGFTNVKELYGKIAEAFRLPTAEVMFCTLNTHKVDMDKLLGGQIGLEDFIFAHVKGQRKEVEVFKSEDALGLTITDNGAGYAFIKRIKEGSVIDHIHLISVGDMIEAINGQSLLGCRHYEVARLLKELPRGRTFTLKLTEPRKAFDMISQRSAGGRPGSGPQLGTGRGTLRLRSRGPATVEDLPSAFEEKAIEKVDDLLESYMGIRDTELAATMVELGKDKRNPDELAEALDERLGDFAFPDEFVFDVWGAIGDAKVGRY


Legend:
[1] = molecular target: biotinylated peptide corresponding to the last 25 amino acids of endoglin wild-type; assay: SPR; BIAcore T200, 25°C; 100 RU of biotinylated endoglin peptide immobilised on a streptavidin chip; His-tagged protein perfused (0.5 to 120 μM) at 30 μl/min in 10 mM HEPES pH 7.4, 150 mM NaCl, 0.005% Tween 20; apparent KD from equilibrium responses, Langmuir isotherm
[2] = molecular target: T1, 6xHis-tagged GIPC1 construct; assay: as above; conditions: both partners purified

| Kd [1] | Kd [2] | Molecule |
| --- | --- | --- |
| 27.1 µM |  | 6xHis-tagged syntenin construct (containing the two PDZ domains and the C-terminal domain) (domain or fragment) |
|  | 2.4 µM | SSESSSTNHSIGSTQSTPCSTSSMA (also: biotinylated, position not given here, endoglin (CD105), last 25 C-terminal amino acids, wild type; also called endoglin cytosolic domain; immobilized peptide corresponding to the last 25 C-terminal amino acids of wild-type endoglin) [biotinylated peptide corresponding to the last 25 amino acids of endoglin wild-type] |
